Protein production data for 18 sequences are collected here from a protein production outcome set (Wang et al. 2014).

The data set in a line: label from the status in PepcDB records.
Regarding “MEDIFSKRKTLRTIKADTSDYFIPLFHTLAVFLSTKETIITKRFLEHIMKNLIALTLLLGGSTLLCAQKPAKTPATYKPVKSEMYRKGWIDFNKNGVKDVYEDPSAPLEARIENLLQQMTLDEKTCQMVTLYGYKRVLKDDLPTPEWKELLWKDGIGAIDEHLNGFQQWGLPPSDNAYVWPASRHAWALNEVQRFFVEDTRLGIPVDFTNEGIRGVESYRATNFPTQLGLGHTWNRELIRQVGLITGREARMLGYTNVYAPILDVGRDQRWGRYEEVYGESPYLVAELGIEMVRGLQHNHQVAATGKHFAAYSNNKGAREGMARVDPQMSPREVENIHIYPFKRVIREAGMLGVMSSYNDYDGIPVQGSYYWLTTRLRGEMGFRGYVVSDSDAVEYLYTKHGTAKDMKEAVRQSVEAGLNVRCTFRSPDSFVLPLRELVKEGGLSEEVINDRVRDILRVKFLIGLFDAPYQTDLADADREVEKEENEAIALQASRESIVLLKNAGELLPLDINSTKKIAVCGPNANEEGYALTHYGPLAVEVTTVLEGIQEKTKGKAEVLYTKGCDLVDAHWPESEIIDYPLTDDEQAEIDKAVENARQADVAIVVLGGGQRTCGENKSRTSLDLPGRQLQLLQAIQATGKPVVLILINGRPLSINWADKFVPAILEAWYPGSKGGTALADILFGDYNPGGKLTVTFPKTVGQIPFNFPCKPSSQIDGGKNPGPTGNMSRINGALYPFGYGLSYTTFEYSDLDITPRVITPNESATVRLKVTNTGKRAGDEVVQLYIRDVLSSITTYEKNLAGFQRIHLEPGEAQELSFTIDRKHLELLDADMKWVVEPGDFVLMAGASSEDIRLNGTLTVEDYQTRAKAIEAQKPAKRVSASTNPEDAENVLDEKINTAWQGNKGDYITFALKNGAKVDKVAIAFTRDNNLPATFEIQLSGGGGQFLTVYSGTVSEYGKLISYPFKGTTASDLRIVLNDDRVSIAEVKF”, the protein production result was “failed”.

For “MTNNEYTDISNKETDVSPANIEQLKSVSMIWFVPFVALLIGAWMIYYQLSNEGPVITIAFDSAEGMEIGKTKIKSYNVDIGEVSNIVLNENADGVIVTARMTKNAEKLLNKNSDFWLVSPEISHTGISGLSTLISGVYIEFYPSSIHEEEVDELTSEFIALKDPPVTPPGAPGLHLTLNSNDQFAYSKGDPIIYKGLTVGQFEHIHFNFEERVVYYNAFIKAPYHQLVTTNTKFWDVSGLRMDLTADGLSIQTGNIETMLTNGVTFDVPKGMENGEEITERSYFDIYANYKEADDERYKYSVEYIVLVSNTIRGLSVGAPVEYRGVLIGHVKSINLLAQRNSDRPQIFDEDIKIPILISLQPGRVGLPDNEMGVSLMKQQHQLWIKDGLRASLKTGSLLTGSLFIDFQHYSDLNNEEENTQRTDFENSQYGEYTIIPSVDDEFSQITAKASQFIDNLNALPLEKISGNTNELITEFTQTAKSFQSVSDNLSGVLDGVNQQQLTQELKTTLQSYTKLSKDLSAGSKGYEDLRQTLSALTKVMNELQPLLNQLKHQPNGLIFESGKVDAIEPKKYTPNKKAE”, the protein production result is listed as “failed”.

For “MNYILHLSILLVVAKLLEWLFEKKDIHPIIAHILTGIILGPFLLGIIYPNEELKVLSEFGLIMMMLYMGLTSNFSAIAQNKVKAIVVASLGVAFSFILGFTTVYLFGKGISAALFVGITLGNTAIEVTSGVIMKERIKREISSVLMGAAFADDIIAVYLIGILTGMIKGQTSLLSLAILTIKIVAFILSVLIFSEFVFKKSSLIYNLVIKDLNVFFTFTIILTFSLAVIAEGIGLNRIIGAYLAGLTISRLRERKDPLIISRIKLNELINELQVVLTEFFIPLFFIYVGLMFDPDTSEINLLLIALLYASAILGKLIGCGLGVKVFKGSWKDAVIVGIGMGGRGSLDLALLKFGLESGMIGEDLFATTVIVSMLTALSTPIFFRKTVKKLSEE”, the protein production entry is recorded as “failed”.

Consider “MPSAMNERTVAELEKLLRYIAANLKQRGREILTNYPITPPQFVALQWLLEEGDLTVGELSNKMYLACSTTTDLVDRMERNGLVARVRDEHDRRVVRIRLLEKGERIIEEVIEKRQRDLANVLESFSDEEIVVFERCLRKLHQEMTKE”, for which the protein production result is recorded as “not failed”.

Consider “MYTPVSKSTKSNKNRSSLDKILDAKKPVNLLILGTDTGAEGRSVKNYHGLTDLMMFVTVNPSKKQTRVTTIARDSKVNLPDYPEVSPIKLNSAYSLGGVSETIKTLDKYYSVPIDGYVLVNWASTMKIITKMGGVDVISPLTFDNMGYSFKKGQMYHISGKKALAFVQLRHGDPRQDYGRQERERLVMMAAIKKSVSYKTILNSSFMQSLGDSMQTDLSLNDMIKLAMNYQGVTDNVKSDYAQGKSSSVNNQRFGNMEVEIMSTKERQRISNNIRQTLGIKNVDVYKEDNLEHHHHHH”, for which the protein production result is “not failed”.

As for “MKKILAICGIELSLIFKKPQNYLIMFAAPLLLTFVFGSMLSGNDDKVRLAIVDQDDTILSQHYIRQLKAHDDMYVFENMSESKASEKLKQKKIAGIIVISRSFQTQLEKGKHPELIFRHGPELSEAPMVKQYAESALATLNIQVTAAKTASQTAGENWKAAYKTVFAKKHEDIVPAVTRQTLSDKKEGAEASDTASRAAGFSILFVMLTMMGAAGTILEARKNGVWSRLLTASVSRAEIGAGYVLSFFVIGWIQFGILLLSTHWLFGINWGNPAAVIVLVSLFLLTVVGIGLMIAANVRTPEQQLAFGNLFVIATCMVSGMYWPIDIEPKFMQSIAEFLPQKWAMSGLTEIIANGARVTDILGICGILLAFAAITFAAGLKALRA”, the protein production entry is recorded as “failed”.

“MIKGGGGKSSGYSADLMVCFPSRAHLSLPSKSISSPSSSFNRRQNAPHHRRSISKLSSSGGGVRQNRGGGREVVEEPTSPKVTCAGQIKVRSSKRDGGGKNWQSLMAEIEKIHRSKSESKFFGIKRDVMGFLTCLRDFDFRCFGAFPPVDIISDDEEEDEEEEEEDEEEDEDESSGTVFSKWLMVLHEKQNNEECVDGKENVFSDVETAVPPPNALLLMRCRSAPVKNWSEEKKEETEEGDNRVKQSGEEEEEEKDRVGNKKDLRSLMEEEKKMNLVVMNYDTNYYKLSNDIAKETWVVGGIQDPLFRSRSWKK”: the protein production result is reported as “failed”.

Regarding “NDTELPTYRVVSRLSLDDLIETIDEDLDREIEFSEEILDQVDTVGGLIAFEKGRIPLPGTTVTTSGLQLQAEGGRDRRGRIQVRSVLVSVLPVESLSEL”, the protein production entry is reported as “failed”.

“MVLFVDFLLEWLEMMRTRVRETTYASYNSGIRQSIIPYFMDKKLTLTDIEENPKYLQDFYQHELSKGLSPNSVLRRHANIRKALQHAFHLGLIKSNPADRIERPKKQLEHHHHHH”: the protein production result is on record as “failed”.

As to “MTEARKIPKPSFPYGSPGELNSFLPYLLTRITHIWSSELNQALASEKLPTPKLRLLSSLSAYGELTVGQLATLGVMEQSTTSRTVDQLVDEGLAARSISDADQRKRTVVLTRKGKKKLAEISPLINDFHAELVGNVDPDKLQTCIEVLGEILKGKTDY”, the protein production result was “not failed”.

On to “MVSLTMVPIDALLSKEVNAFIVQHKHASVAELMLRMPVFTVDSRWIAAQIEGWQKASQKLPLWASTENIIYPIRLSMEQCSSERTAHYKSTLMSGERLVDLTGGFGVDSFYLSKSFNEVIYIEQQEDLAEIAAHNFSTLNQNNIVVKTADSDEYLKDIAEKIDVIFLDPARRKEMRKVYKLSDCEPNVVALQSFYFSKADVILIKTSPMLDITEATRQLTGIKEIHVVSVDNECKEVLYLLEKNYSGKATYICAHDYKKQLQLFSFTIAAEQAVTLSYSAPLAYLYEPNPSILKAGGFNSITQKYEVFKLHASSHLYTSASEVSDFPGRTFKIKETVGYSKKDIQAAVPGGKANIQTRNFPDSVEAIRKKTGLKDGGNIFIFATTLHDLSKVLLICEKI”, for which the protein production entry is listed as “failed”.

Regarding “MTESKKLWTGHIHLGEKVDFGVILNQLCQAFNGSPFFSHNAMQMRVIDNQIEGYIDMQPYLIGNVAFQILHGGVAATLLDSIGGIVAMAEIYRRAEATEMAEAIKKVSRLATVDMRVDYLAPGRGQYFIARAEVLRFGRKGCTMRMNLINDENKAIATAIASYAF”, the protein production result was “failed”.

For the sequence “MVVKVINKKQDKFYFKLGMFILIFLILGVSLLNIIGINVDKTYENGNGMYAHIVDYSLPWVKVANNKNTSENTYSIKNIILSAAGLDINKPENVISKEVSFLGEALPKSIKSECPNESFTLDDKDVVKSTSGSVQNEPLKNINENIYDPKLKKALDKSKPEILIYHSHTTEAYKPYPADSLNSTQNVCAVGDELVKELGEKYGIYAINDKTVHNVVDYNKSYTRSGETLDKYLKQYGDFKMIIDMHRDSDVPKSKVTARINGEDVAKFMFVMTRKNPHFDKNMALVNGLVSICNKDFPGIFNGIYYYDYGINYYNQQKSNNAFLLEVGSDINTIDEAKGTSKYLARIIAEYLNGKK”, the protein production result is listed as “failed”.

Regarding “MTKFSIIIPTRERVGTLLYTLPACLRVERDDIEFVVCDNYSQDGTADYLKSIQDHRVRIYRTNQRLSMKDNFEHGLARAQGEYICFMGDDDLIIPSLFPLVEKELENVETVCWNRWVYYWPDSYESPNMLIVNNNNFSVILSSSRALDFALRYFLNYQNLPSLYNSFTHRKIVQRVINYNCLNLETEKFYPQDAISPDVFSALQILKFTNSFAHIGLPLTVSGISSSSNGAGVRNNSEESKKFIQELKVEKLSDLLHVSLSALLTQKISYYITNLSDYISFIINYIPETLQEDIFLDLIASGCRTLFDIGDIDADTATQFMAGYDISPWVVNGRLNLMDQGFYTLFRVPMFNRVVINGDEHSLSNSLNASVFLDDYFSSLIY”, the protein production entry was “failed”.

As for “MALNTNQLFAYLNRGDIAEFKFSPLFTTLFFPNVATFSTQNIMLDTLDIEEVTMSAFCSPMVGSQVQRDKGYETSTIKPGYMKPKHEIDPTKTIMRMAGEDPAQLNDPTYRRMRLITGNMRRQINAIKARVEWLAVNAVTTGKNIIEGEGIERYEIDWKIPEKNIIEQADGKKWSEQDKETHYPIYDIELYADQAGCPANVMIMGAEVWRTLRSFKKFRELYDLSRGSESAAELACKNLGEVVSFKGYLGDLALIVYSGKYTDSDGTEKYFLEPDLLVLGNTNNKGLVAYGAIMDQEAVRTGATQNMFYPKNWIEDGDPAIEYVQTHSAPQPVPADIRKFVTVKIA”, the protein production entry is “not failed”.

On to “AASSRSWKSWFIEQYFWLKRDKSYYSKQDDPSFQRYLDACREQSDKPYQLDTNLVNGPLVQENLYGMQVYSWNDNGKPDQKTIIYLAGGSYLNNPTTYHINMLKTLSTSLDAKIVLPIYPKAPRYTYNYTMPKLVNLYQHYYHKNQNVFLMGDSAGGGLALGLAHALHNESVPQPKQLVLLSPWLDVTMSHPEIPEYEDADPILSSWGLKRVGELWAYSADNTNHIYVSPKNGPITYLPPITLFTGTREIFYPDIRDYAAKLKAANHNITFITQEGMNHVYPIYPIEEAKTAQYQIIDAINKT”, for which the protein production result is listed as “failed”.

As to “MVITNFLILLLGLVFLVKGSDYFVKSASSIAKKLGISEFIIGLTLVAVGTSIPELASSMAASIQQASGIVIGNVVGSNIANIGLIVGIAAFLSPMKTEVEMLRRDGYIMLFAALLFFAFALNGELSKIEAGLFLLLYIAYTFFLFEETDKHEGKLYFKEFIKYFVKFQYINSARQKINGINNGVSRTNGDSGNKNCQPKNSFSKDILALILSCAAIIIGAKYFVSESIFFAELLGIPDTIIGTTLVAIGTSLPELAVTVSAARQGYGNIALGNIIGSNITNILMILGVSGLLFPIAVAEISLVFTAPVMIFISVVLLIFISTGWEIKRWEGAALMSLYAAFLFVLFRIS”, the protein production entry was “failed”.

On to “MVQEEKAMEAINDALRALRKRHLLEEGAHAPAISALSKPLISQGSEWKEKTEKLETELQQCYKAQSRLSEQLVIEVAESRTSKAILQEKELLINDLQKELTQRREDCTRLQEELEEKTKTVDVLIAENLEIRSQLEEMTSRVQKAETENKMLIDRWMLQKMQDAERLNEANDLYEEMLAKLKANGLETLARQQVDGIVRRNEDGTDHFVESTIPSTCANRIHAHEGGCGSIVFEYNSGTLFTGGQDRAVKMWDTNSGTLIKSLYGSLGNILDMAVTHDNKSVIAATSSNNLFVWDVSSGRVRHTLTGHTDKVCAVDVSKFSSRHVVSAAYDRTIKLWDLHKGYCTNTVLFTSNCNAICLSIDGLTVFSGHMDGNLRLWDIQTGKLLSEVAGHSSAVTSVSLSRNGNRILTSGRDNVHNVFDTRTLEICGTLRASGNRLASNWSRSCISPDDDYVAAGSADGSVHVWSLSKGNIVSILKEQTSPILCCSWSGIGKPLASADKNGYVCTWT”, for which the protein production result is recorded as “failed”.
